The assay deals with T1, GST-EBP50 (ERM-binding phosphoprotein 50 kD) (human, UniProt O14745 1-358).
T1 sequence (looked up): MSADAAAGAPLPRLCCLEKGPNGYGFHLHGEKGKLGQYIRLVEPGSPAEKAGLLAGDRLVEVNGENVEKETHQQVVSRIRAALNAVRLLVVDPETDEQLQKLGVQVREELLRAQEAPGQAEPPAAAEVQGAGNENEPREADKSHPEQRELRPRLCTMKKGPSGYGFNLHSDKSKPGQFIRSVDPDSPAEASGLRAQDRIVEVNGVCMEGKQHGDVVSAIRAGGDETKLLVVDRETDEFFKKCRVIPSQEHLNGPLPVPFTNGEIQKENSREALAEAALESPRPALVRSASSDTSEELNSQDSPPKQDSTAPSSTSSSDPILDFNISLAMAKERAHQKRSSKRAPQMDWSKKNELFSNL
In words: pull-down.

Ends that are not written are not given here. * marks the point of attachment. Biotin = O=C1N[C@H]2[C@H](CS[C@H]2CCCCC(=O)*)N1

B1: CFTRwt peptide (COOH-terminal 10 amino acids of human CFTR) (peptide)
peptide: Biotin-SGSGTEEEVQDTRL
On to B1, for which the binding result is “binds”.

(Values after article PMC2156157 (The Journal of Cell Biology, 1999).)
